Test results taken from publication PMC10707464.

How the values were obtained:
[1] = tested on: CCCCCCCCCC(=O)CC(=O)N[C@H]1CCOC1=O; assay: purified protein; details: 25.0 °C
CCCCSC1CCC(=O)O1 = assay: purified protein; details: pH 8.0; 25.0 °C

**Q.** What does the source list for “SacPox (Sulfolobus acidocaldarius DSM 639)”?
**A.** kcat/Km [1]: 1.62e+07 ± 2.2e+06 M⁻¹ s⁻¹; Km (CCCCSC1CCC(=O)O1): 24 ± 0.5 µM; kcat/Km (CCCCSC1CCC(=O)O1): 1.86e+06 ± 70000 M⁻¹ s⁻¹

**Q.** Which Km (CCCCSC1CCC(=O)O1) does the source give for SsoPox (Saccharolobus solfataricus P2) here?
**A.** Its Km is 80 ± 3 µM.

**Q.** And the kcat/Km (CCCCSC1CCC(=O)O1)?
**A.** Its kcat/Km is 360000 ± 10000 M⁻¹ s⁻¹.
